Measured values: patent publication US20190367609A1 (INNATE PHARMA, published 2019)

Experiments:
[1] = biological target: T1, human NKp46 expressed on cells (human, UniProt O76036 22-304); experiment: cell-based or functional assay
[2] = biological target: T1, human NKp46 expressed on cells; experiment: flow cytometry on Raji-hNKp46 cells, dose range, anti-human IgG1-PE detection
Procedure: (§1) Flow cytometry: Cells were harvested and stained in PBS 1×/BSA 0.2%/EDTA 2 mM buffer during 30 minutes at 4° C. using a dose-range of the anti-NKp46 mAbs. After two washes in staining buffer, cells incubated with anti-NKp46 antibodies were stained for 30 min at 4° C. with mouse anti-human IgG1-PE monoclonal antibodies from Miltenyi (dil. 1/10). After two washes, the stainings were acquired on the HTFC Intellicyt device and analyzed using the ForeCyt software.

[3] = biological target: T2, Macaca fascicularis NKp46 expressed on CHO cells (Macaca fascicularis, UniProt Q95JB9 22-306); experiment: flow cytometry on CHO cells transfected with cyno NKp46, dose range, anti-human IgG1-PE detection
T2 construct: Cloned from Macaca fascicularis cDNA and transfected into the CHO cell line; also called cyno NKp46; CHO-cynoNKp46
Procedure: The antibodies (including 8B6A, 8B6B, 9H11A, 9H11B and 17E1) were assessed for binding to Macaca fascicularis NKp46 (cyno NKp46) protein. The sequence of cyno NKp46 (shown below) was cloned from Macaca fascicularis cDNA and transfected into the CHO cell line. The binding of CHG1-M-H46 to CHO-cynoNKp46 was analyzed by flow cytometry.
as §1, with “cytometry: CHO cells” for “cytometry: Cells”, “Miltenyi (dil” for “Miltenyi (dil.”, “washes,” for “washes, the”, “on a” for “on the”, “Intellicyt” for “Intellicyt device”, “using” for “using the”

[4] = biological target: T3, Human 6xHis tagged NKp46 recombinant protein (human, UniProt O76036 22-255, limits assumed); experiment: SPR Biacore T100, antibody captured on Protein-G chip, soluble NKp46-His 12.5-200 nM, single cycle kinetics, 1:1 model, monovalent
T3 construct: also called NKp46-His; soluble NKp46-His recombinant proteins; not shown: 6xHis tag
Procedure: SPR measurements were performed on a Biacore T100 apparatus (Biacore GE Healthcare) at 25° C. In all Biacore experiments HBS-EP+ (Biacore GE Healthcare) and NaOH 10 mM NaCl 500 mM served as running buffer and regeneration buffer respectively. Sensorgrams were analyzed with Biacore T100 Evaluation software. Protein-G was purchase from GE Healthcare and Anti-His antibody from QIAGEN. Human 6×His tagged NKp46 recombinant proteins (NKp46-His) were cloned, produced and purified at Innate Pharma.
Affinity study has been performed using the Protein-G chip. Monovalent affinity study was done following the Single Cycle Kinetic (SCK) protocol. Five serial dilutions of soluble NKp46-His recombinant proteins ranging from 12.5 to 200 nM were injected over the captured Anti-NKp46 anti bodies (without regeneration) and allowed to dissociate for 10 min before regeneration. For each antibody, the entire sensorgram was fitted using the 1:1 SCK binding model.

T3 sequence (O76036 22-255 Q82K limits assumed): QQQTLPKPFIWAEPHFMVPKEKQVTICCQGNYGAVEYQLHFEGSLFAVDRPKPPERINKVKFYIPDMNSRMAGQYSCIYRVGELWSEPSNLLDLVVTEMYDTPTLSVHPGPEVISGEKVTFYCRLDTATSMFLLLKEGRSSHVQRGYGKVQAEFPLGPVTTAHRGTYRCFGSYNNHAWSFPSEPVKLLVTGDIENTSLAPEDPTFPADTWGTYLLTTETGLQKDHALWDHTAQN
T1 sequence (O76036 22-304 Q82K limits assumed): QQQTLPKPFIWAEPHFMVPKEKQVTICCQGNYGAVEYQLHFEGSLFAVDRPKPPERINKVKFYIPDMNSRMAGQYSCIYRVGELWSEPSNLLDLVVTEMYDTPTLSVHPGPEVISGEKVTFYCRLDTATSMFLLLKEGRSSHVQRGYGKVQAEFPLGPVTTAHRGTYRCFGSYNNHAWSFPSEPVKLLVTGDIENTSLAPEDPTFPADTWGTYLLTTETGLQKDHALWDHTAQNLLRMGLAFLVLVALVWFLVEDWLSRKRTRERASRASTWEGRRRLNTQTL
T2 sequence (Q95JB9 22-306 limits assumed): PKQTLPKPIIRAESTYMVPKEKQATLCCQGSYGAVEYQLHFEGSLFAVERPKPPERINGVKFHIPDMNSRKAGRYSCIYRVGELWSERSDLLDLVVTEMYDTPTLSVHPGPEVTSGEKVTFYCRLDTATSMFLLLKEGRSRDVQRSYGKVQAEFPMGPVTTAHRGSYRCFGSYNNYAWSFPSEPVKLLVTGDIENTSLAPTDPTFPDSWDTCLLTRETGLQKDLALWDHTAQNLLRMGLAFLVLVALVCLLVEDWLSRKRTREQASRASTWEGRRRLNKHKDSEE

B1: 17E1 antibody-drug conjugate with PBD dimer (DAR=2) (antibody, V domains shown)
VH: QVQLQQPGSVLVRPGASVKLSCKASGYTFTSSWMHWAKQRPGQGLEWIGHIHPNSGISNYNEKFKGKATLTVDTSSSTAYVDLSSLTSEDSAVYYCSRGGRFDDWGAGTTVTVSS
VL: DIQMTQSPSSLSASLGERVSLTCRASQDIGSSLNWLQQEPDGTIKRLIYATSRLDSGVPKRFSGSRSGSDYSLTISSLESEDFVDYYCLQYASSPWTFGGGTKLEIK
modifications: PBD dimer through amino-PEG-azide / DBCO-val-ala linker on Q295 (Kabat EU numbering) of each heavy chain; deglycosylated with PNGaseF
B1 was tested, and the “IC50 for cytotoxicity towards SNK6 cells (Cell Titer Glo, 72 h)” value (“IC50 for cytotoxicity towards SNK6 cells” below) [1] was 0.01 ng/mL.

B2: 8B6B (antibody, V domains shown)
VH: QVQLQQPGSELVRPGASVKLSCKASGYTFTSYWMHWVKQRPGQGLEWIGTIYPGSDITNYDEKFKNKATLTVDTSSSTAYMQLSSLTSEDSAVYYCTRDGRFANWGQGTLVTVSA
VL: EIQMTQSPSSLSASLGERVSLTCRASQDIGSSLNWLQQEPDGTIKRLIYATSSLDSGVPKRFSGSRSGSDYSLTISSLESEDFVDYYCLQYASSPYTFGGGTKLEIK
notes: Same heavy chain variable domain as 8B6A with a different light chain; also called CHG1-M-H46 8B6-B
B2 gave an EC50 [2] of 76 ng/mL, an EC50 [3] of 28 ng/mL and a Kd [4] of 4.07 nM. The koff [4] was 0.0011 s⁻¹ and the kon [4] was 271000 M⁻¹ s⁻¹.

B3: 17E1 (antibody, V domains shown)
VH: QVQLQQPGSVLVRPGASVKLSCKASGYTFTSSWMHWAKQRPGQGLEWIGHIHPNSGISNYNEKFKGKATLTVDTSSSTAYVDLSSLTSEDSAVYYCSRGGRFDDWGAGTTVTVSS
VL: DIQMTQSPSSLSASLGERVSLTCRASQDIGSSLNWLQQEPDGTIKRLIYATSRLDSGVPKRFSGSRSGSDYSLTISSLESEDFVDYYCLQYASSPWTFGGGTKLEIK
notes: also called CHG1-M-H46 17E1
Binder B3 has an EC50 [2] of 55 ng/mL and an EC50 [3] of 59 ng/mL.

B4: 8B6A (antibody, V domains shown)
VH: QVQLQQPGSELVRPGASVKLSCKASGYTFTSYWMHWVKQRPGQGLEWIGTIYPGSDITNYDEKFKNKATLTVDTSSSTAYMQLSSLTSEDSAVYYCTRDGRFANWGQGTLVTVSA
VL: EIVLTQSPAITAASLGQKVTITCSASSSVSYMHWYQQKSGTSPKPWIYEISKLASGVPARFSGSGSGTSYSLTISSMEAEDAAIYYCQQWNLPLTFGAGTKLELK
notes: Mouse variable domains; light chain is kappa (VK); also called CHG1-M-H46 8B6-A
For B4, the EC50 [2] was 148 ng/mL, the EC50 [3] was 29 ng/mL and the Kd [4] was 4.08 nM. For the same binder, the koff [4] was 0.00109 s⁻¹ and the kon [4] was 267000 M⁻¹ s⁻¹.

B5: 9H11A antibody-drug conjugate with PBD dimer (DAR=2) (antibody, V domains shown)
VH: QVQLQQPGAELVKPGASVKLSCKASGYTFTSYWMHWVKLRPGQGFEWIGEIIPSNGVTNYNEKFKRKATLTVDKSSSTAYMQLSSLTSEDSAVYYCTIRLRYALDYWGQGTSVTVSA
VL: DIQMTQTTSSLSASLGDRVTISCRASQDISNFLNWYQQKPDGTVKLLIYYTSRLHSGVPSRFSGSGSGTDYSLTISNLEQEDIATYFCQQGNTLPPTFGGGTKLEIK
modifications: PBD dimer through amino-PEG-azide / DBCO-val-ala linker on Q295 (Kabat EU numbering) of each heavy chain; deglycosylated with PNGaseF
B5 was tested, and the “IC50 for cytotoxicity towards SNK6 cells” value [1] was 0.02 ng/mL.

B6: 9H11A (antibody, V domains shown)
VH: QVQLQQPGAELVKPGASVKLSCKASGYTFTSYWMHWVKLRPGQGFEWIGEIIPSNGVTNYNEKFKRKATLTVDKSSSTAYMQLSSLTSEDSAVYYCTIRLRYALDYWGQGTSVTVSA
VL: DIQMTQTTSSLSASLGDRVTISCRASQDISNFLNWYQQKPDGTVKLLIYYTSRLHSGVPSRFSGSGSGTDYSLTISNLEQEDIATYFCQQGNTLPPTFGGGTKLEIK
notes: also called CHG1-M-H46 9H11-A
B6 gave an EC50 [2] of 51 ng/mL, an EC50 [3] of 26 ng/mL and a Kd [4] of 0.728 nM. The koff [4] was 0.000199 s⁻¹ and the kon [4] was 273000 M⁻¹ s⁻¹.

B7: 9H11B antibody-drug conjugate with PBD dimer (DAR=2) (antibody, V domains shown)
VH: QVQLQQPGAELVKPGASVKLSCKASGYTFTSYWMHWVKLRPGQGFEWIGEIIPSNGVTNYNEKFKRKATLTVDKSSSTAYMQLSSLTSEDSAVYYCTIRLRYALDYWGQGTSVTVSA
VL: DIVMTQSQKFMSTSVGDRVSVTCKASQNVGTNVAWYQQKPGQSPKALIYSTSFRYSGVPDRFTGSGSGTDFTLTISNVQSEDLAEYFCQQYNSYPFTFGSGTKLEIK
modifications: PBD dimer through amino-PEG-azide / DBCO-val-ala linker on Q295 (Kabat EU numbering) of each heavy chain; deglycosylated with PNGaseF
With B7 the “IC50 for cytotoxicity towards SNK6 cells” value [1] was 0.01 ng/mL.

B8: 9H11B (antibody, V domains shown)
VH: QVQLQQPGAELVKPGASVKLSCKASGYTFTSYWMHWVKLRPGQGFEWIGEIIPSNGVTNYNEKFKRKATLTVDKSSSTAYMQLSSLTSEDSAVYYCTIRLRYALDYWGQGTSVTVSA
VL: DIVMTQSQKFMSTSVGDRVSVTCKASQNVGTNVAWYQQKPGQSPKALIYSTSFRYSGVPDRFTGSGSGTDFTLTISNVQSEDLAEYFCQQYNSYPFTFGSGTKLEIK
notes: Same heavy chain variable domain as 9H11A with a different light chain; also called CHG1-M-H46 9H11-B
Binder B8 has an EC50 [2] of 124 ng/mL, an EC50 [3] of 25 ng/mL and a Kd [4] of 0.892 nM. For the same binder, the koff [4] was 0.000253 s⁻¹ and the kon [4] was 283000 M⁻¹ s⁻¹.
